{"source": "paper PMC9371898", "assay_in_all_cases": "SEC", "key": {"[1]": {"biological_target": "PriRep5 K591A (Staphylococcus aureus (SaPI5, strain USA300))"}, "[2]": {"biological_target": "PriRep5-ΔCTD (residues 676-790 removed) (Staphylococcus aureus (SaPI5, strain USA300))"}, "[3]": {"biological_target": "Rep1 Triple Mutant (R248A-Y251A-K253A) (Staphylococcus aureus (SaPI1)) (UniProt Q8GNZ1)"}}, "data": [{"substance": "PriRep5 K591A (natural protein)", "values": [{"measurement": "stoichiometry N", "setting": "[1]", "value": 6}]}, {"substance": "PriRep5-ΔCTD (residues 676-790 removed) (domain or fragment)", "values": [{"measurement": "stoichiometry N", "setting": "[2]", "value": 6}]}, {"substance": "Rep1 Triple Mutant (R248A-Y251A-K253A) (from UniProt Q8GNZ1 1-66) (natural protein)", "values": [{"measurement": "stoichiometry N", "setting": "[3]", "value": 6}]}]}
